Reference: patent US9994628B2, “Peptides and combination of peptides for use in immunotherapy against various tumors” (IMMATICS BIOTECHNOLOGIES GMBH, priority 2015, dated 2018)

What was measured:
CD8+ T cells = assay: In vitro T-cell priming assay with aAPCs loaded with peptide/MHC complexes and anti-CD28 antibody, pMHC multimer readout; type: cell-based, human; details: for Wells positive [%]: percentage of positive wells among evaluable, HLA-A*02 restricted peptides; for donors (in vitro immunogenicity): positive donors; for donors (in vitro immunogenicity) / wells (in vitro immunogenicity): healthy HLA-A*02 donors, three stimulation cycles; for wells (in vitro immunogenicity): positive wells
Source text: In order to obtain information regarding the immunogenicity of the TUMAPs of the present invention, the inventors performed investigations using an in vitro T-cell priming assay based on repeated stimulations of CD8+ T cells with artificial antigen presenting cells (aAPCs) loaded with peptide/MHC complexes and anti-CD28 antibody.
In order to perform in vitro stimulations by artificial antigen presenting cells loaded with peptide-MHC complex (pMHC) and anti-CD28 antibody, the inventors first isolated CD8+ T cells from fresh HLA-A*02 leukapheresis products via positive selection using CD8 microbeads (Miltenyi Biotec, Bergisch-Gladbach, Germany) of healthy donors obtained from the University clinics Mannheim, Germany, after informed consent. PBMCs and isolated CD8+ lymphocytes were incubated in T-cell medium (TCM) until use consisting of RPMI-Glutamax (Invitrogen, Karlsruhe, Germany) supplemented with 10% heat inactivated human AB serum (PAN-Biotech, Aidenbach, Germany), 100 U/ml Penicillin/100 μg/ml Streptomycin (Cambrex, Cologne, Germany), 1 mM sodium pyruvate (CC Pro, Oberdorla, Germany), 20 μg/ml Gentamycin (Cambrex). 2.5 ng/ml IL-7 (PromoCell, Heidelberg, Germany) and 10 U/ml IL-2 (Novartis Pharma, Nümberg, Germany) were also added to the TCM at this step. Generation of pMHC/anti-CD28 coated beads, T-cell stimulations and readout was performed in a highly defined in vitro system using four different pMHC molecules per stimulation condition and 8 different pMHC molecules per readout condition.
The purified co-stimulatory mouse IgG2a anti human CD28 Ab 9.3 (Jung et al., 1987) was chemically biotinylated using Sulfo-N-hydroxysuccinimidobiotin as recommended by the manufacturer (Perbio, Bonn, Germany). Beads used were 5.6 μm diameter streptavidin coated polystyrene particles (Bangs Laboratories, Illinois, USA).
pMHC used for positive and negative control stimulations were A*0201/MLA-001 (peptide […] (SEQ ID NO. 289) from modified Melan-A/MART-1) and A*0201/DDX5-001 ([…] from DDX5, SEQ ID NO. 290), respectively.
800.000 beads/200 μl were coated in 96-well plates in the presence of 4×12.5 ng different biotin-pMHC, washed and 600 ng biotin anti-CD28 were added subsequently in a volume of 200 μl. Stimulations were initiated in 96-well plates by co-incubating […] CD8+ T cells with 2×10^5 washed coated beads in 200 μl TCM supplemented with 5 ng/ml IL-12 (PromoCell) for 3 days at 37° C. Half of the medium was then exchanged by fresh TCM supplemented with 80 U/ml IL-2 and incubating was continued for 4 days at 37° C. This stimulation cycle was performed for a total of three times. For the pMHC multimer readout using 8 different pMHC molecules per condition, a two-dimensional combinatorial coding approach was used as previously described (Andersen et al., 2012) with minor modifications encompassing coupling to 5 different fluorochromes. Finally, multimeric analyses were performed by staining the cells with Live/dead near IR dye (Invitrogen, Karlsruhe, Germany), CD8-FITC antibody clone SK1 (BD, Heidelberg, Germany) and fluorescent pMHC multimers. For analysis, a BD LSRII SORP cytometer equipped with appropriate lasers and filters was used. Peptide specific cells were calculated as percentage of total CD8+ cells. Evaluation of multimeric analysis was done using the FlowJo software (Tree Star, Oregon, USA). In vitro priming of specific multimer+ CD8+ lymphocytes was detected by comparing to negative control stimulations.

HLA-A*02:01 = HLA-A*02:01 (Homo sapiens, UniProt P04439, D140Y/D185E/D98H/E176V/E277Q/G131W/G231S/I119V/I121R/I166T/I218V/L300P/L318F/N151K/N90K/P208A/P217A/Q86G/Q94H/R138H/R169H/T345S); assay: MHC binding assay: UV-ligand exchange and β2m ELISA (peptide exchange yield, Table 7); details: binding of HLA-class I restricted peptides to HLA-A*02:01, UV-ligand exchange
How it was run: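 Peptide-MHC complexes made by UV-mediated exchange of a cleavable ligand for test peptide; exchange yield measured by ELISA detecting β2m of stabilized complexes captured on streptavidin, using refolded HLA-A*02:01/MLA-001 monomer standards (15-500 ng/ml). Samples diluted 100-fold; HRP anti-β2m, TMB, absorbance 450 nm.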

Peptide exchange (MHC class I binding score, peptide exchange yield) (HLA-A*02:01) | Substance | other results
+ (≥10% = +) | 227 (SEMEELPSV; listed as Homo sapiens) [compound 227] | –
+++ (≥50% = +++) | 143 (MLWESIMRV; listed as Homo sapiens) [compound 143] | –
++ (≥20% = ++) | 146 (VVAAHLAGA; listed as Homo sapiens) [compound 146] | –
+++ (≥50% = +++) | 278 (VLEDKVLSV; listed as Homo sapiens) [compound 278] | –
+++ (≥50% = +++) | 145 (ALEEKLENV; listed as Homo sapiens) [compound 145] | –
+++ (≥50% = +++) | 195 (VIIQNLPAL; listed as Homo sapiens) [compound 195] | –

Continued, substance first:

Substance | Peptide exchange (MHC class I binding score, peptide exchange yield) (HLA-A*02:01) | other results
39 (YLEDGFAYV; listed as Homo sapiens) [compound 39] | +++ (≥50% = +++) | Wells positive [%] (CD8+ T cells): ++++ (>=70% = ++++)
34 (TLNTLDINL; listed as Homo sapiens) [compound 34] | +++ (≥50% = +++) | Wells positive [%] (CD8+ T cells): ++++ (>=70% = ++++)
288 (SLYKGLLSV; listed as Homo sapiens) [compound 288] | – | donors (in vitro immunogenicity) (CD8+ T cells): ++++ (>=70% = ++++); wells (in vitro immunogenicity) (CD8+ T cells): ++ (21%-49% = ++)
287 (KIQEILTQV; listed as Homo sapiens) [compound 287] | – | donors (in vitro immunogenicity) (CD8+ T cells): +++ (50%-69% = +++); wells (in vitro immunogenicity) (CD8+ T cells): + (<20% = +)
130 (QLYGSAITL; listed as Homo sapiens) [compound 130] | +++ (≥50% = +++) | –
24 (KVWSDVTPL; listed as Homo sapiens) [compound 24] | +++ (≥50% = +++) | –
53 (AQHLSTLLL; listed as Homo sapiens) [compound 53] | + (≥10% = +) | –
134 (SLYKSFLQL; listed as Homo sapiens) [compound 134] | ++ (≥20% = ++) | –
12 (RLLDPKTIFL; listed as Homo sapiens) [compound 12] | +++ (≥50% = +++) | –
58 (HLLGEGAFAQV; listed as Homo sapiens) [compound 58] | +++ (≥50% = +++) | –
96 (ALDTTRHEL; listed as Homo sapiens) [compound 96] | ++ (≥20% = ++) | –
30 (IITEVITRL; listed as Homo sapiens) [compound 30] | +++ (≥50% = +++) | –
